# Laboratory results as given in publication doi:10.1101/108647.
# Read-outs that look alike come from different tables or passages of the source.
# T1: HisFlag-Mlh1 (MutLγ subunit);Mlh3 (MutLγ subunit) (Saccharomyces cerevisiae (S288c, …, UniProt P38920;Q12083 1-769;1-715, |))
# T1 sequence 1: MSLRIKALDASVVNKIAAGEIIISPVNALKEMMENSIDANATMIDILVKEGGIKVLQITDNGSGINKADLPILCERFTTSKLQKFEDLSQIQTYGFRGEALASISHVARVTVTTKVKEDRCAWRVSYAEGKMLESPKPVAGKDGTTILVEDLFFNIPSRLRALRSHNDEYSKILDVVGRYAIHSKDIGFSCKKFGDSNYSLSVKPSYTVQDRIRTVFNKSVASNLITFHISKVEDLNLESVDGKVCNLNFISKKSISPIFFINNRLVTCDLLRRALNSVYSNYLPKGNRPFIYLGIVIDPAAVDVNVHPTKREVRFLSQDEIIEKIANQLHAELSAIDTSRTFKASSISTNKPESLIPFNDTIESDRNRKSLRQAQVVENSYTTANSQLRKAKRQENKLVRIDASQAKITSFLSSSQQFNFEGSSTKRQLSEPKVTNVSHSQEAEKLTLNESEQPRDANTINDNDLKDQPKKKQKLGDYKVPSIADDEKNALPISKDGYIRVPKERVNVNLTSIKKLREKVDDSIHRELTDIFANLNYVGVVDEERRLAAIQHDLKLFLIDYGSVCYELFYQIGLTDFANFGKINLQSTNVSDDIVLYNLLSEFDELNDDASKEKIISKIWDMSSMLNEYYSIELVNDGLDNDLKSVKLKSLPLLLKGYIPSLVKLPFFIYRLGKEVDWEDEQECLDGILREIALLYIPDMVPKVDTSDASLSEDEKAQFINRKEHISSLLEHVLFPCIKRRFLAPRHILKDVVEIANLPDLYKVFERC
# T1 sequence 2: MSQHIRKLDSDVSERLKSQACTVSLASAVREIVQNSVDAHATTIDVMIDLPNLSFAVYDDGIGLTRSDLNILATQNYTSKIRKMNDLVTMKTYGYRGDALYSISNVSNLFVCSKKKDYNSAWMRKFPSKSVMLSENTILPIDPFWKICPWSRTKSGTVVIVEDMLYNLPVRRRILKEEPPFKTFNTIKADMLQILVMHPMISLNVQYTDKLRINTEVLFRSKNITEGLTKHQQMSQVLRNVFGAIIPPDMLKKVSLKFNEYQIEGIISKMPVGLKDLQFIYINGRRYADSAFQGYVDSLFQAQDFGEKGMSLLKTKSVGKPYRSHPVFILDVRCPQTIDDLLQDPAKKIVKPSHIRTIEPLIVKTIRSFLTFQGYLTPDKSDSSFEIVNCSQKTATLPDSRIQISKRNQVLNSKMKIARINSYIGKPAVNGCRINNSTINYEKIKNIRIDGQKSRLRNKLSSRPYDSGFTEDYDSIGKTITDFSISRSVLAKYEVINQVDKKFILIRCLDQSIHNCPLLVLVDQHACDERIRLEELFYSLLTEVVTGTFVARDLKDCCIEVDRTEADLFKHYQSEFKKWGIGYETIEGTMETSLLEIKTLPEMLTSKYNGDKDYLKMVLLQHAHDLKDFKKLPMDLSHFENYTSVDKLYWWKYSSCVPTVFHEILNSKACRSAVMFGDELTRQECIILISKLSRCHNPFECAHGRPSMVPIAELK
# T2: Mlh1 (untagged);HisFlag-Mlh3 (Saccharomyces cerevisiae (S288c, …, UniProt P38920;Q12083 1-769;1-715, |))
# T2 sequence 1: T1 sequence 1
# T2 sequence 2: T1 sequence 2
# B1: ssDNA+ FeBABE (cb361) (ssDNA)
# DNA: TTTTTTTTTTTTTTTTTTTTTTTTTTTTTTTTTTTTTTTTTTTTTTTTTTTTTTTTTTTTTTTTTTTTTTTTTTTTTTTT
# modifications: phosphorothioate-FeBABE after every 8 nt; 3'-biotin
# B2: ssDNA80-biotin (cb316) (ssDNA)
# DNA: B1 DNA
# modifications: 3'-biotin
# B3: HJ+1 FeBABE (cb256/351/369/098) (structured_DNA)
# DNA 1: CTAGTATAGAGCCGGCGCGCCATGTCTAGATAGCGTTAGGTCTGCCGAATAGTACTACTCGGATCCCGAGCGAACCACGC
# DNA 2: GCGTGGTTCGCTCGGGATCCGAGTAGTACTATTCGGCAGAGGATTCGAATAGGCCTAATCGAATTCCGCCATCGATGCAC
# DNA 3: GTGCATCGATGGCGGAATTCGATTAGGCCTATTCGAATCCAGACGCGAGTAGATCTTCACGGTACCCGCGGTTACCCGTG
# DNA 4: CACGGGTAACCGCGGGTACCGTGAAGATCTACTCGCGTCTCCTAACGCTATCTAGACATGGCGCGCCGGCTCTATACTAG
# modifications: phosphorothioate-FeBABE on strands 2 and 3, segment 1 (nearest the center); 3'-biotin on strand 1
# B4: HJ80-biotin (cb256/096/097/098) (structured_DNA)
# DNA 1: B3 DNA 1
# DNA 2: B3 DNA 2
# DNA 3: B3 DNA 3
# DNA 4: B3 DNA 4
# modifications: 3'-biotin on strand 1
# B5: dsDNA80-biotin (cb256/cb100) (dsDNA)
# DNA 1: B3 DNA 1
# DNA 2: GCGTGGTTCGCTCGGGATCCGAGTAGTACTATTCGGCAGACCTAACGCTATCTAGACATGGCGCGCCGGCTCTATACTAG
# modifications: 3'-biotin on strand 1
# Assays:
# [1] = molecular target: T1, HisFlag-Mlh1 (MutLγ subunit);Mlh3 …; experiment: FeBABE footprinting
# [2] = molecular target: T2, Mlh1 (untagged);HisFlag-Mlh3; experiment: FeBABE footprinting
# [3] = molecular target: T1, HisFlag-Mlh1 (MutLγ subunit);Mlh3 …; experiment: pull-down
# [4] = molecular target: T2, Mlh1 (untagged);HisFlag-Mlh3; experiment: FeBABE footprinting; remark: listed apart in the source
# [5] = molecular target: T1, HisFlag-Mlh1 (MutLγ subunit);Mlh3 …; experiment: FeBABE footprinting; remark: listed apart in the source
binder,measurement,setting,value
B1,binding result,[1],binds
same,binding result,[2],binds
B2,binding result,[3],binds
B3,binding result,[4],binds
same,binding result,[5],binds
B4,binding result,[3],binds
B5,binding result,[3],no binding
